From patent US20120114667A1 (AstraZeneca / MedImmune, published 2012)
Numbering of substitutions follows the chain as printed.

B1: 2C5.2B12 (antibody, IgG2, V domains shown)
VH: RVQLQESGPGLVKPTQTLSLTCTVSGGSIISGGYFWTWIRQHPGKGLEWIGYIYYSGSTYYSPSLKSRVTISVDTSKNQFSLKLSSVTAADTAVYYCTRAVPAAKGYYSYYGMDVWGQGTTVTVSS
VL: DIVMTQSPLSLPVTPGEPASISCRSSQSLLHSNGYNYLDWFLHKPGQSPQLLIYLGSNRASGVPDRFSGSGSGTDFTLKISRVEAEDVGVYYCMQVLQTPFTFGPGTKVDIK
B2: 3G11.1A6 (antibody, IgG2, V domains shown)
VH: B1 VH with G27S
VL: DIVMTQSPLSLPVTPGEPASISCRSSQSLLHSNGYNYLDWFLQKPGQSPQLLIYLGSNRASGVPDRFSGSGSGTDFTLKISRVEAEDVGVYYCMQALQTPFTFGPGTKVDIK
B3: 3C2.2A8 (antibody, IgG2, V domains shown)
VH: B1 VH
VL: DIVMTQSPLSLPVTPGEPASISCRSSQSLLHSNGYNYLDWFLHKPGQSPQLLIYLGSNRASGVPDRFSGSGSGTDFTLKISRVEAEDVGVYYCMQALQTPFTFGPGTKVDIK
notes: also called mAb 3C2.2A8
B4: 2A9.1A1 (antibody, IgG2, V domains shown)
VH: B1 VH
VL: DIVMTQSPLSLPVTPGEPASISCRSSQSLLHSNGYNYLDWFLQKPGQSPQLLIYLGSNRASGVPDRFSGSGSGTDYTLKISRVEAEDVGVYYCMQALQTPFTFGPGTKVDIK
B5: 2F5.1A4 (antibody, IgG2, V domains shown)
VH: QMQLVQSGAEVKKPGASVKVSCKASGYTFTGYYMHWVRQAPGQGLEWMGWINTNSGGTNCAQKFQVRVTMTRDTSISTAYMELSRLRSDDTAVYYCARGRGYSSGWYDYWGQGTLVTVSS
VL: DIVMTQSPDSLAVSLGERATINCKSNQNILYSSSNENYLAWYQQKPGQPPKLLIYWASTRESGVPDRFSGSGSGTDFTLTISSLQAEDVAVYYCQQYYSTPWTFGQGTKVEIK
B6: 7B2.3B10 (antibody, IgG4, V domains shown)
VH: QVQLVESGGGVVQPGRSLRLSCAASGFTFSSYGMHWVRQAPGKGLEWVAVIWYDGSYKYYADSVQGRFTISRDNSKNTLYLQMNSLRAEDTAVYYCARDKGGHYFDYWGQGTLVTVSS
VL: DIQMTQSPSSLSASVGDRVTITCRASQSISSYLNWYQQKPGKAPKLLIYAASSLQSGVPSRFSGSGSGTDFTLTISSLQPEDFATYYCQQNFSFPPEWTFGQGTKVEIK
B7: 9E2.3A8 (antibody, IgG4, V domains shown)
VH: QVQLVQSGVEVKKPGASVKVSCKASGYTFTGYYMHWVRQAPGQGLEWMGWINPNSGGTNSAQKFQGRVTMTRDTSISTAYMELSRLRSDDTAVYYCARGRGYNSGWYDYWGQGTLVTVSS
VL: DIVMTQSPDSLAVSLGERATINCKSSQSVLHNSHNENYLTWYQQKPGQPPKLLIYWASSRESGVPDRFSGSGSGTDFTLSISSLQADDVAVYYCQQYFSNPWTFGQGTKVEIK
B8: 8A6.1A3 (antibody, IgG4, V domains shown)
VH: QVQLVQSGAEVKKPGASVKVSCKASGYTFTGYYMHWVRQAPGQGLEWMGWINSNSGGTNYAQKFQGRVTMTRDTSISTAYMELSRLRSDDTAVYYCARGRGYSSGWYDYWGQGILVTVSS
VL: B7 VL with L30F, H31F, N32S, H34S, S59T, S80T, D87E, F98Y, S99N, N100I
B9: 2E10.1B9 (antibody, IgG2, V domains shown)
VH: B1 VH
VL: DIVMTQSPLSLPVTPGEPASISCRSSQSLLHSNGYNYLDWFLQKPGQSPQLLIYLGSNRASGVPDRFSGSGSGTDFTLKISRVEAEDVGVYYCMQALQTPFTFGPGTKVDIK

The binders below were run against T1, α4β1 integrin on J6.77 Jurkat cells (UniProt P13612 34-1032; P05556 21-798) (assay: cell-based or functional assay).
T1 sequence (P13612 34-1032, chain 1 of 2): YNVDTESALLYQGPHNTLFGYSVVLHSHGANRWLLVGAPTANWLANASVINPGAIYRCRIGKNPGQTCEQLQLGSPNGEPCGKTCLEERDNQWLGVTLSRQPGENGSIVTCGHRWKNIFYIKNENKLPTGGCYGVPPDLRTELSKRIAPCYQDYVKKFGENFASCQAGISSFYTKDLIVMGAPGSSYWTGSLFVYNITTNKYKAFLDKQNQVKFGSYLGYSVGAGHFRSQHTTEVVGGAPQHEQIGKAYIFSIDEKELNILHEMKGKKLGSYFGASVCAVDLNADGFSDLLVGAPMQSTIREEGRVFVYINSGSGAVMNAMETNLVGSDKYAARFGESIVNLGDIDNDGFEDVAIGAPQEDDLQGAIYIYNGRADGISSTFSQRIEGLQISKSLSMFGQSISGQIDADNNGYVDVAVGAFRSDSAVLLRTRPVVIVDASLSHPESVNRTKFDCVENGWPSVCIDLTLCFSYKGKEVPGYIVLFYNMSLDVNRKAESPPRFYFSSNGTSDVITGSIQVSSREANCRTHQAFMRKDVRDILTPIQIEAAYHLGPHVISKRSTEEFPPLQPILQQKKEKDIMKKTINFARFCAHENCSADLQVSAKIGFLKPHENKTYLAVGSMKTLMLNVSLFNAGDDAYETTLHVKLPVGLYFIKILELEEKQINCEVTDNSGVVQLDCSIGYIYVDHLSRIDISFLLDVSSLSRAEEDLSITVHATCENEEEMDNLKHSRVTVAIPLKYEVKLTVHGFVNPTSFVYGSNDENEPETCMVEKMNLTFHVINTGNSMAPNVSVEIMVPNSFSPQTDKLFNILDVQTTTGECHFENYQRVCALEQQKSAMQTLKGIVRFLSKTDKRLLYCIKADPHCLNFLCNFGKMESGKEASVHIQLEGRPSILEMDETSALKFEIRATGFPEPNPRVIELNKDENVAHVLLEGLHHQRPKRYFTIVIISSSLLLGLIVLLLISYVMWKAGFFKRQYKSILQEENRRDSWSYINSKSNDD
T1 sequence (P05556 21-798, chain 2 of 2): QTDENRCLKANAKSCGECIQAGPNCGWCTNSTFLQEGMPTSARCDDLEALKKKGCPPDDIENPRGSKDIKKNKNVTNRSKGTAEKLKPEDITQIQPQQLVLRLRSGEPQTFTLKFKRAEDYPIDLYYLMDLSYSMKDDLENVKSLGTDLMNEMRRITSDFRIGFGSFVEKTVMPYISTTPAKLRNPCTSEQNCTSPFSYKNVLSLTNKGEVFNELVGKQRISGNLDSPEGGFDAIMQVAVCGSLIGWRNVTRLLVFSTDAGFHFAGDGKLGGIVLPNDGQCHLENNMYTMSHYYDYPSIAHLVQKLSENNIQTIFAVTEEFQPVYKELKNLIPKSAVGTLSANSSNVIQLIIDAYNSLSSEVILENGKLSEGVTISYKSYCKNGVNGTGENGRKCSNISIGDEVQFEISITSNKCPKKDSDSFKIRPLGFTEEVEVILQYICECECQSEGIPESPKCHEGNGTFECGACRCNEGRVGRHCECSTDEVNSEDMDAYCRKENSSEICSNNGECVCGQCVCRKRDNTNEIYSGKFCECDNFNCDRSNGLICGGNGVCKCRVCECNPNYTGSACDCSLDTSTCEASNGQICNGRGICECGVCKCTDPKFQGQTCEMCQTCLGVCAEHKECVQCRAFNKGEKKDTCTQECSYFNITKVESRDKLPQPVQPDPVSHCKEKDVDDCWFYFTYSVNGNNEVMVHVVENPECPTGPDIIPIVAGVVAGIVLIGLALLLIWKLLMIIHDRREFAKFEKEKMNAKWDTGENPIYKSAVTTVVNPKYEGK

Average % inhibition at 5 ug/ml (J6 adhesion to GST-CS-1) [%] | Binder
18 | B1
-2 | B2
1 | B3
-19 | B4
-12 | B5
-14 | B6
2 | B7
-23 | B8

Biological target: T1, α4β1 integrin on J6.77 Jurkat cells
Experiment: cell-based or functional assay
Remark: another data set of the same source

% Inhibition of adhesion CS1 n = 1 (J6.77 Jurkat on GST-CS-1) [%] | % Inhibition of adhesion CS1 n = 2 (J6.77 Jurkat on GST-CS-1) [%] | Binder
31 | -5 | B9
14 | -5 | B1
17 | 9 | B2
22 | 18 | B3
2 | 11 | B4
31 | -8 | B5
45 | 21 | B6
40 | 10 | B7
24 | 9 | B8

Each binder was assayed against T2, Macaque α5β1 (Macaque) (assay: FACS on macaque PBMC, 1 mM Mn2+).
T2 construct: whole, on cells; macaque species not specified; also called monkey α5β1; monkey integrin
Method: To determine whether the antibodies cross reacted to monkey integrin, binding to purified Macaque T-cells was assessed. Macaque PBMCs were previously purified from whole blood, and stored frozen. Macaque PBMCs were suspended in adhesion buffer with HBSS 1% BSA and 1 mM Mn2+ (“FACS buffer”), at a concentration of 4.8×10⁵ live cells per ml. 12.5 uL of the primary antibody was added to 37.5 ul of cells, and incubated at 4° C. for 1 hour. Positive and negative controls were included as indicated. 100 uL of FACs buffer is added to dilute out primary antibody, the cells washed and resuspended in the appropriate secondary at 2 ug/mL (50 uL) with 10 ug/mL 7AAD, and stained on ice for 7 minutes. 100 uL of FACs buffer was added and cells were washed twice in FACS buffer, finally the supernatant removed and the cells were resuspended in 100 uL of buffer.
Samples were read on HTS FACS machine and analyzed using Cell Quest Pro software. The data shown in Table 7 confirm that the antibodies cross react with monkey α5β1.

Geo Mean on Macaque T-cells IgG detection | Binder
12 | B9
11 | B1
13 | B2
10 | B3
12 | B4
13 | B5
12 | B6
12 | B7
11 | B8

What follows are binders tested against T3, human α5β1 integrin (human, UniProt P08648 42-1049; P05556 21-798) (assay: cell-based or functional assay).
T3 sequence (P08648 42-1049, chain 1 of 2): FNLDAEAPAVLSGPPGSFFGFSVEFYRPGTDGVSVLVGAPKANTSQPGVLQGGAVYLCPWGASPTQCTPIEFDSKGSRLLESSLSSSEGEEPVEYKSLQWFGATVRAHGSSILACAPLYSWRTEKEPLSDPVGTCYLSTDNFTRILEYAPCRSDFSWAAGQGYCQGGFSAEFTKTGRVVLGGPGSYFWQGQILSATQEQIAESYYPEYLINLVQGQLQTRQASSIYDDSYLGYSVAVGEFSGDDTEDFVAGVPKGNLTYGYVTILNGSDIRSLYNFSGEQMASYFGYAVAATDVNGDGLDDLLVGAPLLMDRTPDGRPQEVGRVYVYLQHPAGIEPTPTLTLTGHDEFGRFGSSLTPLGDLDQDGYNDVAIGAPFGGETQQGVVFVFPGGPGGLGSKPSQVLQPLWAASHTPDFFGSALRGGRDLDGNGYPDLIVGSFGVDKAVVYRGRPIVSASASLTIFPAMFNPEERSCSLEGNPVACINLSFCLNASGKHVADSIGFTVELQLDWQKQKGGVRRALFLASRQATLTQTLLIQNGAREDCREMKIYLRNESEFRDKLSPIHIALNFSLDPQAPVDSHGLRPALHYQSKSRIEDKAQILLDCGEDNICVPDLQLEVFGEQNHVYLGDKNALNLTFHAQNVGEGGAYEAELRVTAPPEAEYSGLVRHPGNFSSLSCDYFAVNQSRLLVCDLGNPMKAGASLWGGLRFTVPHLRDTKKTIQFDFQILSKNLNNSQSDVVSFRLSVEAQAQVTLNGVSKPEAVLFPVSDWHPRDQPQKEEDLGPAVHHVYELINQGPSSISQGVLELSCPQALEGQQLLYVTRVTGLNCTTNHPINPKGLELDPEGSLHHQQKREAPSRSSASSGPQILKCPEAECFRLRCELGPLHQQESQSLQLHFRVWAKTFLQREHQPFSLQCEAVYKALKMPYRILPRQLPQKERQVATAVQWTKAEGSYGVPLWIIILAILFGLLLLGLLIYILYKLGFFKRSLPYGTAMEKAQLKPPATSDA
T3 sequence (P05556 21-798, chain 2 of 2): as the sequence (P05556 21-798, chain 2 of 2) above

IC50 ng/mL (K562 adhesion to GST-FNIII(9-10)) [ng/mL] | Binder
11.9 | B1
9 | B2
12.4 | B3
14.1 | B4
97.8 | B5
57 | B6
73.4 | B7
52.2 | B8

Biological target: T3, human α5β1 integrin
Experiment: cell-based or functional assay
Remark: another data set of the same source

% Inhibition of cell adhesion n = 1 (K562 on full length FN) [%] | % Inhibition of cell adhesion n = 2 (K562 on full length FN) [%] | % Inhibition of cell adhesion n = 3 (K562 on GST-FNIII(9-10), no pre-incubation) [%] | % Inhibition of cell adhesion n = 4 (K562 on GST-FNIII(9-10), supernatant 1 in 10) [%] | % Inhibition of cell adhesion n = 5 (K562 on GST-FNIII(9-10), supernatant 1 in 10) [%] | Binder
97 | 94 | 96 | 86 | 87 | B9
100 | 96 | 101 | 96 | 97 | B1
99 | 99 | 93 | 92 | 100 | B2
99 | 100 | 102 | 94 | 96 | B3
100 | 94 | 96 | 94 | 100 | B4
96 | 100 | 103 | 91 | 84 | B5
93 | 100 | 94 | 85 | 75 | B6
98 | 100 | 94 | 94 | 87 | B7
99 | 95 | 91 | 92 | 90 | B8

What follows are binders tested against T4, β1 integrin chain on HT29 cells (α5 null line) (human, UniProt P05556 21-798) (assay: FACS on HT29 cells (no α5, β1 present)).
T4 construct: whole, on cells; β1 is paired with alpha chains other than α5 on these cells; also called β1 chain; beta1
Method: To confirm the antibodies bind to the α5 chain or to the α5β1 heterodimer, binding to Human colon adenocarcinoma grade II cells (HT29 cells) was assessed by FACS. […] HT-29 cells were suspended in HBSS with 1% BSA and 1 mM final MnCL₂ at a concentration of 6×10⁵ cells/ml.12.5 uL of the primary antibody was added to 37.5 ul of cells and the plate incubated on ice for 60 minutes. A range of negative controls were included as described previously (indicated as below). In addition as a positive control antibodies to αvβ6 (Mab2077, Chemicon), α5β1 (Mab1909, Chemicon) and av (L230, Chemicon) were included. 100 uL of HBSS buffer was added to dilute primary antibody, the cells pelleted by centrifuging at 1500 rpm for 3 minutes and resuspended in 50 ul Goat anti-human IgG Fc Cy5 or Goat anti Mouse IgG Fc Cy5 secondary at 2 ug/mL. They were then incubated on ice for a further 7 minutes, and 100 uL of HBSS buffer was added to dilute secondary antibody. Finally cells were pelleted by centrifuging at 1500 rpm for 3 minutes, HBSS Buffer/secondary supernatant removed, washed twice in 100 ul of FACS buffer was added and the cells were resuspended and then read on a FACS Calibur HTS. Samples were analyzed using Cell Quest Pro software. The data is represented in Table 6 and confirm that the antibodies are selective for α5β1.

T4 sequence (P05556 21-798): as the sequence (P05556 21-798, chain 2 of 2) above

Binding Geomean | binding result | Binder
3.11 | no binding | B9
3.6 | no binding | B1
3.02 | no binding | B2
3.29 | no binding | B3
4.73 | no binding | B4
2.94 | no binding | B5
3.1 | no binding | B6
2.86 | no binding | B7
2.99 | no binding | B8
